From patent US20240116985A1, “STAPLED PEPTIDES AND METHODS THEREOF” (priority 2020, published 2024) come the findings set out here.

Starred links: 1 amine or outer side, 2 acyl side, 3 side chain; linkers in the order of their positions; H or OH if unused. Positions of bridges follow the written chain, without caps; N, C: chain ends. Non-standard residues stand in square brackets, D forms with d. Primed or numbered codes have the meaning given here. PyrS2″ = (S)-3-amino-1-((pent-4-en-1-yloxy)carbonyl)pyrrolidine-3-carboxylic acid (stapling residue), C=CCCCOC(=O)N1CC[C@@](N[*:1])(C(=O)[*:2])C1; B5(4) = 2,2-bis(4-pentenyl)glycine = 2-amino-2-(pent-4-en-1-yl)hept-6-enoic acid (stitching residue), C=CCCCC(CCCC=C)(N[*:1])C(=O)[*:2]; B5(5) = 2,2-bis(4-pentenyl)glycine, 2-amino-2-(pent-4-en-1-yl)hept-6-enoic acid (stitching residue), C=CCCCC(CCCC=C)(N[*:1])C(=O)[*:2]; PyrS2 = (S)-3-amino-1-((pent-4-en-1-yloxy)carbonyl)pyrrolidine-3-carboxylic acid, C=CCCCOC(=O)N1CC[C@@](N[*:1])(C(=O)[*:2])C1; 4TriA = (S)-2-amino-3-(1H-1,2,3-triazol-4-yl)propanoic acid, O=C([C@H](Cc1c[nH]nn1)N[*:1])[*:2]; B5(3) = 2,2-bis(4-pentenyl)glycine (stitching residue), C=CCCCC(CCCC=C)(N[*:1])C(=O)[*:2]; Phe(3-COOH) = N[C@@H](Cc1cccc(C(=O)O)c1)C(=O)O; Phe(2-CF3) = N[C@@H](Cc1ccccc1C(F)(F)F)C(=O)O; Bta = N[C@@H](Cc1csc2ccccc12)C(=O)O; αAllylPro = C=CC[C@@]1(C(=O)O)CCCN1; tBuAla = CC(C)(C)C[C@H](N)C(=O)O; Gly(cBu) = N[C@H](C(=O)O)C1CCC1; 3Thi = N[C@@H](Cc1ccsc1)C(=O)O; S8 = C=CCCCCCC[C@](C)(N)C(=O)O; Nle = CCCC[C@H](N)C(=O)O; Ac5c = NC1(C(=O)O)CCCC1; Aib = CC(C)(N)C(=O)O

The target in one assay is full-length beta-Catenin (Uniprot ID P35222) (Homo sapiens (Human)) (UniProt P35222). In words: cell-based or functional assay.
Target sequence in this assay (P35222 2-781 limits assumed): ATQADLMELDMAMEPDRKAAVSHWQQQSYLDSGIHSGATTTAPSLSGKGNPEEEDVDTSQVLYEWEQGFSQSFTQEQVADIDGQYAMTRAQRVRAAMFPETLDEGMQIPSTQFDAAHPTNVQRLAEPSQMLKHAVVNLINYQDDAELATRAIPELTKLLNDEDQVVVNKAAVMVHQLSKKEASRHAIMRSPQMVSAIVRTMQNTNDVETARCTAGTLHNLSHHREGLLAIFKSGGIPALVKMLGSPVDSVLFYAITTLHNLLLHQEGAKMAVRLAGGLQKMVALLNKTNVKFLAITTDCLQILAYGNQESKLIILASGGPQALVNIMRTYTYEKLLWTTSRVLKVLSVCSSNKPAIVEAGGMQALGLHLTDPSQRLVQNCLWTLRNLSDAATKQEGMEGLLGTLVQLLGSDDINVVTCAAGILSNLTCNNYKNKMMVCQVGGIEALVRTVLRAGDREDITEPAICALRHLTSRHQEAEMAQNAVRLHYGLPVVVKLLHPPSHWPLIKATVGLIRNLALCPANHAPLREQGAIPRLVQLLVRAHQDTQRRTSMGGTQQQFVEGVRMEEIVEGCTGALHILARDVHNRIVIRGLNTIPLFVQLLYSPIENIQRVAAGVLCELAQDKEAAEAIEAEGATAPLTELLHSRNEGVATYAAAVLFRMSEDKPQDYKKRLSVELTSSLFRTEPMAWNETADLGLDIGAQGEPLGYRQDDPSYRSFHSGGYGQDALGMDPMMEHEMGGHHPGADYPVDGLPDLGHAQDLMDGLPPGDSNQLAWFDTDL
As for Ac-[αAllylPro]D[tBuAla][B5(5)]D[Phe(3-COOH)]AAFL[PyrS2][Phe(2-CF3)][Bta]QLR-NH2 (staple 1-4, 4-11) [I-2393], the DLD1 4% Abs IC50 worked out at 5600 nM.

The molecule Ac-[αAllylPro]D[tBuAla][B5(5)]D[Phe(3-COOH)]AAFL[PyrS2″][Phe(2-CF3)][Bta]QL[Gly(cBu)]-NH2 (staple 1-4, 4-11) [I-2388] showed a DLD1 4% Abs IC50 of 1200 nM.

Ac-[αAllylPro]D[tBuAla][B5(5)]D[Phe(3-COOH)]AAFL[PyrS2″][Phe(2-CF3)][Bta]QLL-NH2 (staple 1-4, 4-11) [I-2380]: the DLD1 4% Abs IC50 was 1500 nM.

As for Ac-[αAllylPro]D[tBuAla][B5(5)]D[Phe(3-COOH)]AAFL[PyrS2][Phe(2-CF3)][Bta]QLN-NH2 (staple 1-4, 4-11) [I-2390], the DLD1 4% Abs IC50 was determined as 1400 nM.

In the case of Ac-[αAllylPro]D[tBuAla][B5(5)]D[Phe(3-COOH)]AAFL[PyrS2″][Phe(2-CF3)][Bta]QLS-NH2 (staple 1-4, 4-11) [I-2384], the DLD1 4% Abs IC50 came out at 1100 nM.

In turn, Ac-[αAllylPro]D[tBuAla][B5(5)]D[Phe(3-COOH)]AAFL[PyrS2][Phe(2-CF3)][Bta]QL[Nle]-NH2 (staple 1-4, 4-11) [I-2391] gave a DLD1 4% Abs IC50 of 700 nM.

For the molecule Ac-[αAllylPro]D[tBuAla][B5(5)]D[Phe(3-COOH)]AAFL[PyrS2″][Phe(2-CF3)][Bta]QL[Ac5c]-NH2 (staple 1-4, 4-11) [I-2387], the DLD1 4% Abs IC50 turned out to be 1500 nM.

In turn, Ac-[αAllylPro]D[tBuAla][B5(5)]D[Phe(3-COOH)]AAFL[PyrS2″][Phe(2-CF3)][Bta]QL[Aib]-NH2 (staple 1-4, 4-11) [I-2386] displayed a DLD1 4% Abs IC50 of 700 nM.

Regarding Ac-[αAllylPro]D[tBuAla][B5(5)]D[Phe(3-COOH)]AAFL[PyrS2″][Phe(2-CF3)][Bta]QLF-NH2 (staple 1-4, 4-11) [I-2381], the DLD1 4% Abs IC50 was 1100 nM.

The molecule Ac-[αAllylPro]D[tBuAla][B5(5)]D[Phe(3-COOH)]AAFL[PyrS2″][Phe(2-CF3)][Bta]QLT-NH2 (staple 1-4, 4-11) [I-2383] returned a DLD1 4% Abs IC50 of 800 nM.

The target in the next assay is Bcat-Halo (UniProt P35222). Nature of the assay: NanoBRET Abs IC50, HEK293 cells; Bcat-Halo / TCF4-Luc engagement.
Chain of Bcat-Halo (P35222 whole entry): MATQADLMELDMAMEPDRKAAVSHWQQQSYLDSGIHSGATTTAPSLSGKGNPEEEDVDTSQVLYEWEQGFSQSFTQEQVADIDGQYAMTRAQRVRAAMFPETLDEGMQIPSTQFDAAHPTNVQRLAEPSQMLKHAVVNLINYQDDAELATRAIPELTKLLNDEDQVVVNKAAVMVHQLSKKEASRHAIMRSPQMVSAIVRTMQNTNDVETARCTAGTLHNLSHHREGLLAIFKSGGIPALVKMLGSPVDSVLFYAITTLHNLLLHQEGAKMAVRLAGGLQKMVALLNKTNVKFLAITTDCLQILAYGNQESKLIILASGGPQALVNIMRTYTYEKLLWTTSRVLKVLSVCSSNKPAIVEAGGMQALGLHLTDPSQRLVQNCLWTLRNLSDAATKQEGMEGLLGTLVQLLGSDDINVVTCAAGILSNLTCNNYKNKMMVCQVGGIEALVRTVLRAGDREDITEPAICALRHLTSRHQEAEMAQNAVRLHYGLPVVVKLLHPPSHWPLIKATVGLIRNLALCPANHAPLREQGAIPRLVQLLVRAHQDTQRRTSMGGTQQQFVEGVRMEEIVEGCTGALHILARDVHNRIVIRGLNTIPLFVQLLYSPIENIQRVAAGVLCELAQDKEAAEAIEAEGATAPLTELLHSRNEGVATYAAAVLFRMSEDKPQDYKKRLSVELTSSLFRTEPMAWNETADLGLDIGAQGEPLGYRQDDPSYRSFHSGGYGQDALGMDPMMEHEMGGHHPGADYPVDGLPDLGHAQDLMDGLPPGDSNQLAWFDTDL
In turn, Ac-[αAllylPro]D[tBuAla][B5(5)]D[Phe(3-COOH)]AAFL[PyrS2][Phe(2-CF3)][Bta]QLR-NH2 (staple 1-4, 4-11) [I-2393] came in with an IC50 of over 20000 nM.

Molecule Ac-[αAllylPro]D[tBuAla][B5(5)]D[Phe(3-COOH)]AAFL[PyrS2″][Phe(2-CF3)][Bta]QL[Gly(cBu)]-NH2 (staple 1-4, 4-11) [I-2388] showed an IC50 of 5700 nM.

Ac-[αAllylPro]D[tBuAla][B5(5)]D[Phe(3-COOH)]AAFL[PyrS2″][Phe(2-CF3)][Bta]QLL-NH2 (staple 1-4, 4-11) [I-2380] yielded a concentration for half-maximal inhibition (IC50) of 2700 nM.

Regarding Ac-[αAllylPro]D[tBuAla][B5(5)]D[Phe(3-COOH)]AAFL[PyrS2][Phe(2-CF3)][Bta]QLN-NH2 (staple 1-4, 4-11) [I-2390], the IC50 came to 9100 nM.

For Ac-[αAllylPro]D[tBuAla][B5(5)]D[Phe(3-COOH)]AAFL[PyrS2″][Phe(2-CF3)][Bta]QLS-NH2 (staple 1-4, 4-11) [I-2384], the IC50 is 4600 nM.

Regarding Ac-[αAllylPro]D[tBuAla][B5(5)]D[Phe(3-COOH)]AAFL[PyrS2][Phe(2-CF3)][Bta]QL[Nle]-NH2 (staple 1-4, 4-11) [I-2391], the IC50 stood at 8200 nM.

Turning to Ac-[αAllylPro]D[tBuAla][B5(5)]D[Phe(3-COOH)]AAFL[PyrS2″][Phe(2-CF3)][Bta]QL[Ac5c]-NH2 (staple 1-4, 4-11) [I-2387], the IC50 was 7100 nM.

In turn, Ac-[αAllylPro]D[tBuAla][B5(5)]D[Phe(3-COOH)]AAFL[PyrS2″][Phe(2-CF3)][Bta]QL[Aib]-NH2 (staple 1-4, 4-11) [I-2386] had an IC50 of 2800 nM.

Ac-[αAllylPro]D[tBuAla][B5(5)]D[Phe(3-COOH)]AAFL[PyrS2][Phe(2-CF3)][Bta]QLY-NH2 (staple 1-4, 4-11) [I-2392] registered a half-inhibitory concentration (IC50) of 8600 nM.

With Ac-[αAllylPro]D[tBuAla][B5(5)]D[Phe(3-COOH)]AAFL[PyrS2″][Phe(2-CF3)][Bta]QLF-NH2 (staple 1-4, 4-11) [I-2381], the IC50 was 2100 nM.

With Ac-[αAllylPro]D[tBuAla][B5(5)]D[Phe(3-COOH)]AAFL[PyrS2″][Phe(2-CF3)][Bta]QLT-NH2 (staple 1-4, 4-11) [I-2383], the IC50 came out at 4200 nM.

The next assay addresses full-length beta-Catenin (Uniprot ID P35222) (Homo sapiens (Human)) (UniProt P35222). In words: fluorescence polarization competition against 5FAM-TCF4 (10-53) on full-length beta-catenin.
Target sequence in this assay (P35222 2-781 limits assumed): as the sequence (P35222 2-781 limits assumed) above
For the molecule Ac-[αAllylPro]D[tBuAla][B5(3)]D[Phe(3-COOH)]AAFS[PyrS2″][3Thi][Bta]N-NH2 (staple 1-4, 4-11) [I-2045], the IC50 amounted to 5 nM.

Ac-[αAllylPro]D[tBuAla][B5(3)]D[Phe(3-COOH)]SAFL[PyrS2″][3Thi][Bta]A-NH2 (staple 1-4, 4-11) [I-2050] had a concentration for half-maximal inhibition (IC50) of 9 nM.

The target is the same in the next assay. In words: fluorescence polarization competition; full-length beta-catenin, competitor 5FAM-TCF4(10-53).
Target sequence in this assay (P35222 2-781 limits assumed): as above
Ac-[αAllylPro]D[tBuAla][B5(5)]D[Phe(3-COOH)]AAFL[PyrS2][Phe(2-CF3)][Bta]QLR-NH2 (staple 1-4, 4-11) [I-2393]: the half-maximal inhibitory concentration (IC50) was 61 nM.

Ac-[αAllylPro]D[tBuAla][B5(5)]D[Phe(3-COOH)]AAFL[PyrS2″][Phe(2-CF3)][Bta]QL[Gly(cBu)]-NH2 (staple 1-4, 4-11) [I-2388] gave an IC50 of 133 nM.

As for Ac-[αAllylPro]D[tBuAla][B5(5)]D[Phe(3-COOH)]AAFL[PyrS2″][Phe(2-CF3)][Bta]QLL-NH2 (staple 1-4, 4-11) [I-2380], the IC50 was 330 nM.

For Ac-[αAllylPro]D[tBuAla][B5(5)]D[Phe(3-COOH)]AAFL[PyrS2][Phe(2-CF3)][Bta]QLN-NH2 (staple 1-4, 4-11) [I-2390], the IC50 was found to be 22 nM.

Consider Ac-[αAllylPro]D[tBuAla][B5(5)]D[Phe(3-COOH)]AAFL[PyrS2″][Phe(2-CF3)][Bta]QLS-NH2 (staple 1-4, 4-11) [I-2384], for which the IC50 was 5 nM.

On to Ac-[αAllylPro]D[tBuAla][B5(5)]D[Phe(3-COOH)]AAFL[PyrS2][Phe(2-CF3)][Bta]QL[Nle]-NH2 (staple 1-4, 4-11) [I-2391], for which the IC50 was determined as 110 nM.

For the molecule Ac-[αAllylPro]D[tBuAla][B5(5)]D[Phe(3-COOH)]AAFL[PyrS2″][Phe(2-CF3)][Bta]QL[Ac5c]-NH2 (staple 1-4, 4-11) [I-2387], the concentration for half-maximal inhibition (IC50) is 120 nM.

For Ac-[αAllylPro]D[tBuAla][B5(5)]D[Phe(3-COOH)]AAFL[PyrS2″][Phe(2-CF3)][Bta]QL[Aib]-NH2 (staple 1-4, 4-11) [I-2386], the half-maximal inhibitory concentration (IC50) amounted to 75.5 nM.

Ac-[αAllylPro]D[tBuAla][B5(5)]D[Phe(3-COOH)]AAFL[PyrS2][Phe(2-CF3)][Bta]QLY-NH2 (staple 1-4, 4-11) [I-2392] registered an IC50 of 462 nM.

In the case of Ac-[αAllylPro]D[tBuAla][B5(5)]D[Phe(3-COOH)]AAFL[PyrS2″][Phe(2-CF3)][Bta]QLF-NH2 (staple 1-4, 4-11) [I-2381], the IC50 was determined as 1470 nM.

The molecule Ac-[αAllylPro]D[tBuAla][B5(5)]D[Phe(3-COOH)]AAFL[PyrS2″][Phe(2-CF3)][Bta]QLT-NH2 (staple 1-4, 4-11) [I-2383] returned an IC50 of 77 nM.

For another assay the target is unchanged. In words: fluorescence polarization competition; full-length beta-catenin; competitor 5FAM-TCF4(10-53) probe.
Target sequence in this assay (P35222 whole entry, one chain of several): as the sequence (P35222 whole entry) above
Ac-[αAllylPro]D[tBuAla][B5(4)]DDAAFL[S8][3Thi][Bta][4TriA]-NH2 (staple 1-4, 4-11) [I-1193] displayed an EC50 of 78.5 nM.

Take Ac-[αAllylPro]D[tBuAla][B5(4)]DDAAFL[S8][3Thi][Bta]T-NH2 (staple 1-4, 4-11) [I-1191]: the EC50 was determined as 38.5 nM.

For the next assay the target is unchanged. In words: fluorescence polarization competition, displacement of 5FAM-TCF4 10-53 from full-length beta-catenin.
Target sequence in this assay (P35222 2-781 limits assumed): as the sequence (P35222 2-781 limits assumed) above
Molecule Ac-[αAllylPro]D[tBuAla][B5(4)]DDAAFL[S8][3Thi][Bta][4TriA]-NH2 (staple 1-4, 4-11) [I-1193] registered a concentration for half-maximal inhibition (IC50) of 78.5 nM.

On to Ac-[αAllylPro]D[tBuAla][B5(4)]DDAAFL[S8][3Thi][Bta]T-NH2 (staple 1-4, 4-11) [I-1191], for which the half-inhibitory concentration (IC50) turned out to be 38.5 nM.
